Patent US20240279325A1 (Chugai, published 2024)
Residue numbers refer to the chain shown, from its start. Names may count otherwise. Values belong to the binder of their own block, whether it stands above or below them.

What was measured:
[1] = target: T1, human FcγRIIIa type V (allotype V158) extracellular domain with C-terminal His tag (human, UniProt P08637 17-208); assay: SPR (Biacore), antibody captured, FcγR analyte
T1 construct: also called FcγRIIIaV

[2] = target: T2, FcγRIIb extracellular domain with C-terminal His tag (human, UniProt P31994 43-217); assay: SPR; KD for FcγRIIaR divided by KD for FcγRIIb
T2 construct: extracellular domain
T2 sequence (looked up): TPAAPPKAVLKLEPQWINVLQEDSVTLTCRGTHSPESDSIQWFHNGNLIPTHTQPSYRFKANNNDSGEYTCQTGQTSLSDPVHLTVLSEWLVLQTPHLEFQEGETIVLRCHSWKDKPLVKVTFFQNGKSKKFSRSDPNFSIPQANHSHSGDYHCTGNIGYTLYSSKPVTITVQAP

[3] = target: T2, FcγRIIb extracellular domain with …; assay: SPR; KD for FcγRIIaH divided by KD for FcγRIIb
[4] = target: T2, FcγRIIb extracellular domain with …; assay: SPR; KD of IL6R-B3/IL6R-L divided by KD of the variant
[5] = target: T3, FcγRIIa type R (allotype R131) extracellular domain with C-terminal His tag (human, UniProt P12318 34-217); assay: as above
T3 construct: extracellular domain; also called FcγRIIaR; FcγRIIa R type
T3 sequence (looked up): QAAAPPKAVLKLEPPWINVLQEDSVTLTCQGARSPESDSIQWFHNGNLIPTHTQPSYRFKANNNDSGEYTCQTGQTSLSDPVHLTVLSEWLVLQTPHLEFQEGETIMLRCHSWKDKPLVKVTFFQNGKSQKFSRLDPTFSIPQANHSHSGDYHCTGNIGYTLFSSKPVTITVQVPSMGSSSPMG

T1 sequence (P08637 other isoform, or with tags, fused parts or gaps): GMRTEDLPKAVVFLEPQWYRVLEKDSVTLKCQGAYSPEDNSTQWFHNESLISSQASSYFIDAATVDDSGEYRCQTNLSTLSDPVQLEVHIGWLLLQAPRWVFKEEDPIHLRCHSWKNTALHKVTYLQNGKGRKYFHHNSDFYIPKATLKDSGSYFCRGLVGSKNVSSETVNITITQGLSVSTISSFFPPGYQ

B1: IL6R-2B002/IL6R-L (antibody, human IgG1, kappa, name in EU numbering)
heavy: QVQLQESGPGLVKPSETLSLTCAVSGHSISHDHAWSWVRQPPGEGLEWIGFISYSGITNYNPSLQGRVTISRDNSKNTLYLQMNSLRAEDTAVYYCARSLARTTAMDYWGEGTLVTVSSASTKGPSVFPLAPSSKSTSGGTAALGCLVKDYFPEPVTVSWNSGALTSGVHTFPAVLQSSGLYSLSSVVTVPSSSLGTQTYICNVNHKPSNTKVDKKVEPKSCDKTHTCPPCPAPDLLGGDSVFLFPPKPKDTLMISRTPEVTCVVVDVSHEDPEVKFNWYVDGVEVHNAKTKPREEQYNSTYRVVSVLTVLHQDWLNGKEYKCKVSNKALPAPIEKTISKAKGQPREPQVYTLPPSRDELTKNQVSLTCLVKGFYPSDIAVEWESNGQPENNYKTTPPVLDSDGSFFLYSKLTVDKSRWQQGNVFSCSVMHEALHNHYTQESLSLSP
light: not shown
notes: Alterations introduced into IL6R-B3; also called P238D/E233D; copies: 2 + 2
Kd [1]: 53 µM

B2: IL6R-BP103/IL6R-L (antibody, human IgG1, kappa, name in EU numbering)
heavy: B1 heavy with D235E, S269V
light: not shown
notes: Alterations introduced into IL6R-B3; also called P238D/S267V; copies: 2 + 2
Kd [1]: 110 µM

B3: IL6R-BP107/IL6R-L (antibody, human IgG1, kappa, name in EU numbering)
heavy: B1 heavy with D235E, H270E
light: not shown
notes: Alterations introduced into IL6R-B3; also called P238D/H268E; copies: 2 + 2
Kd [1]: 63 µM

B4: IL6R-BP106/IL6R-L (antibody, human IgG1, kappa, name in EU numbering)
heavy: B1 heavy with D235E, H270D
light: not shown
notes: Alterations introduced into IL6R-B3; also called P238D/H268D; copies: 2 + 2
Kd [1]: 55 µM

B5: IL6R-BP118/IL6R-L (antibody, human IgG1, kappa, name in EU numbering)
heavy: B1 heavy with D235E, K328S
light: not shown
notes: Alterations introduced into IL6R-B3; also called P238D/K326S; copies: 2 + 2
Kd [1]: 56 µM

B6: IL6R-BP078/IL6R-L (antibody, human IgG1, kappa, name in EU numbering)
heavy: B1 heavy with D235E, A332M
light: not shown
notes: Alterations introduced into IL6R-B3; also called P238D/A330M; copies: 2 + 2
Kd [1]: 78 µM

B7: IL6R-BP100/IL6R-L (antibody, human IgG1, kappa, name in EU numbering)
heavy: B1 heavy with D235E, S269A
light: not shown
notes: Alterations introduced into IL6R-B3; also called P238D/S267A; copies: 2 + 2
Kd [1]: 59 µM

B8: IL6R-BP142/IL6R-L (antibody, human IgG1, kappa, name in EU numbering)
heavy: B1 heavy with D235E, K328N
light: not shown
notes: Alterations introduced into IL6R-B3; also called P238D/K326N; copies: 2 + 2
Kd [1]: 110 µM

B10: IL6R-BP119/IL6R-L (antibody, human IgG1, kappa, name in EU numbering)
heavy: B1 heavy with D235E, K328M
light: not shown
notes: Alterations introduced into IL6R-B3; also called P238D/K326M; copies: 2 + 2
Kd [1]: 56 µM

B12: IL6R-BP120/IL6R-L (antibody, human IgG1, kappa, name in EU numbering)
heavy: B1 heavy with D235E, K328E
light: not shown
notes: Alterations introduced into IL6R-B3; also called P238D/K326E; copies: 2 + 2
Kd [1]: 79 µM

B13: IL6R-BP136/IL6R-L (antibody, human IgG1, kappa, name in EU numbering)
heavy: B1 heavy with D235E, K328A
light: not shown
notes: Alterations introduced into IL6R-B3; also called P238D/K326A; copies: 2 + 2
Kd [1]: 69 µM

B15: IL6R-BP481/IL6R-L (antibody, human IgG1, kappa, name in EU numbering)
heavy: B1 heavy with G239D, V266I, S269A, H270E, P273G
light: not shown
notes: copies: 2 + 2
KD(IIaR)/KD(IIb) [2]: 20.5 | KD(IIaH)/KD(IIb) [3]: 350 | KD(IIb) OF PARENT POLYPEPTIDE/KD(IIb) OF ALTERED POLYPEPTIDE [4]: 160 | KD(IIaR) OF PARENT POLYPEPTIDE/KD(IIaR) OF ALTERED POLYPEPTIDE [5]: 2.8

B19: IL6R-BP483/IL6R-L (antibody, human IgG1, kappa, name in EU numbering)
heavy: B1 heavy with G239D, V268L, S269A, H270E, P273G
light: not shown
notes: copies: 2 + 2
KD(IIaH)/KD(IIb) [3]: 231 | KD(IIb) OF PARENT POLYPEPTIDE/KD(IIb) OF ALTERED POLYPEPTIDE [4]: 39.7 | KD(IIaR) OF PARENT POLYPEPTIDE/KD(IIaR) OF ALTERED POLYPEPTIDE [5]: 0.8

Next, values leading:

KD(IIaR)/KD(IIb) [2]: 30.3 | KD(IIaH)/KD(IIb) [3]: 564 | KD(IIb) OF PARENT POLYPEPTIDE/KD(IIb) OF ALTERED POLYPEPTIDE [4]: 1880 | KD(IIaR) OF PARENT POLYPEPTIDE/KD(IIaR) OF ALTERED POLYPEPTIDE [5]: 21.7
B9: IL6R-BP498/IL6R-L (antibody, human IgG1, kappa, name in EU numbering)
heavy: B1 heavy with G239D, V266I, S269A, H270E, P273G, A332R, P398L
light: not shown
notes: copies: 2 + 2

Kd [1]: 78 µM
B11: IL6R-BP912/IL6R-L (antibody, human IgG1, kappa, name in EU numbering)
heavy: B1 heavy with D235E, A332R
light: not shown
notes: Alterations introduced into IL6R-B3; also called P238D/A330R; copies: 2 + 2

Kd [1]: 58 µM
B14: IL6R-BP911/IL6R-L (antibody, human IgG1, kappa, name in EU numbering)
heavy: B1 heavy with D235E, A332K
light: not shown
notes: Alterations introduced into IL6R-B3; also called P238D/A330K; copies: 2 + 2

KD(IIaR)/KD(IIb) [2]: 29.5 | KD(IIaH)/KD(IIb) [3]: 352 | KD(IIb) OF PARENT POLYPEPTIDE/KD(IIb) OF ALTERED POLYPEPTIDE [4]: 810 | KD(IIaR) OF PARENT POLYPEPTIDE/KD(IIaR) OF ALTERED POLYPEPTIDE [5]: 10.1
B16: IL6R-BP502/IL6R-L (antibody, human IgG1, kappa, name in EU numbering)
heavy: B1 heavy with G239D, V266I, S269A, H270E, P273G, Y298D, A329G, A332R
light: not shown
notes: copies: 2 + 2

KD(IIaR)/KD(IIb) [2]: 25.5 | KD(IIaH)/KD(IIb) [3]: 201 | KD(IIb) OF PARENT POLYPEPTIDE/KD(IIb) OF ALTERED POLYPEPTIDE [4]: 168 | KD(IIaR) OF PARENT POLYPEPTIDE/KD(IIaR) OF ALTERED POLYPEPTIDE [5]: 2.3
B17: IL6R-BP496/IL6R-L (antibody, human IgG1, kappa, name in EU numbering)
heavy: B1 heavy with G239D, V266I, S269A, H270E, P273G, Y298D
light: not shown
notes: copies: 2 + 2

KD(IIaR)/KD(IIb) [2]: 33.8 | KD(IIaH)/KD(IIb) [3]: 685 | KD(IIb) OF PARENT POLYPEPTIDE/KD(IIb) OF ALTERED POLYPEPTIDE [4]: 2120 | KD(IIaR) OF PARENT POLYPEPTIDE/KD(IIaR) OF ALTERED POLYPEPTIDE [5]: 22.3
B18: IL6R-BP499/IL6R-L (antibody, human IgG1, kappa, name in EU numbering)
heavy: B1 heavy with G239D, V266I, S269A, H270E, P273G, Y298D, A332R, P398L
light: not shown
notes: copies: 2 + 2
